Data as given in US8802386B2, “Diagnostic test for determining the concentration of transient proteolytic activity in composite biological media” (Synapse B.V., priority 2002, dated 2014).

Test system: thrombin generation in platelet-rich plasma of a healthy donor
Assay: Thrombin generation curve (Thrombogram) in platelet-rich plasma, fluorogenic substrate
Format: cell-based, Human
Conditions: platelet-rich plasma of a healthy donor treated with the inhibitor vs the same plasma untreated; FIG. 9
Experimental: FIG. 9 is an example of an experiment in which platelet-rich plasma of a healthy donor is measured as well as the same plasma treated with a known platelet-activation inhibitor (ReoPro®). The two curves are different in shape, which is obvious from a longer TTP and lower peak height, but the area under the curve of both curves are within 3%, identical. This effect on peak height and TTP in the absence of a clear effect on the ETP is also seen for many mild coagulation factor deficiencies such as von Willebrand disease, deficiencies in factor VII or factor V and in factor VIII or IX deficiencies (haemophiliae). In many instances the Peak height and TTP have proven to be much more sensitive parameters of the thrombin generation curve than the ETP alone.
Firstly, an experiment is described in which thrombin generation in a sample of platelet rich plasma is measured. Solutions used: Human platelet rich plasma, obtained as in Beguin, S., T. Lindhout, and H. C. Hemker. The effect of trace amounts of tissue factor on thrombin generation in platelet rich plasma, its inhibition by heparin. Thromb Haemost, 1989. 61(1): p-25-9. Buffer A: 20 mM Hepes 140 mM NaCl, 5 g/l bovine serum albumin (BSA), pH 7.35; Buffer C: 20 mM Hepes, 140 mM NaCl, with BSA 60 mg/mL, pH 7.35 with 0.02% sodium azide as a preservative.
FluCa solution: To 1750 μL of buffer C are added 200 μL of 1 M CaCl2. The mixture is warmed to 37° C. Then 50 μL of 100 mmoles/liter of the substrate solution in DMSO is squirted in and the tube is immediately vortexed to obtain a perfectly clear solution that is 2.5 mM in substrate. 100 mM in CaCl2, 2.5% in DMSO. […]
The disturbing effects a and b are corrected by continuous on line comparison of the first derivative of the signal from the thrombin generated in the sample (O=f(t)) and the first derivative of the signal produced in the other sample by the calibrator (S=f(t)). […] A and B are continuously calculated during the experiment from the best fitting straight line through S=f(t). […]

B1: ReoPro: a known platelet-activation inhibitor (antibody, chains of the INN, looked up, V domains shown)
VH: EVQLQQSGTVLARPGASVKMSCEASGYTFTNYWMHWVKQRPGQGLEWIGAIYPGNSDTSYIQKFKGKAKLTAVTSTTSVYMELSSLTNEDSAVYYCTLYDGYYVFAYWGQGTLVTVSA
VL: EIVLTQSPVTLSVTPGDSVSLSCRASRDISNNLHWFQQTSHESPRLLIKYASQSMSGIPSRFSGSGSGTDFTLSINSVETEDFGMYFCQQTNSWPYTFGGGTKLEIK
modifications: Fab
TTP (time to peak) of thrombin generation curve: longer
difference in area under the curve (ETP) between treated and untreated plasma: ≤ 3%
peak height of thrombin generation curve: lower
